Measured values published in the supplement of paper PMC7877785.
± gives the uncertainty stated by the source.

Assay: self-splicing fitness, log relative to wild type (ln ratio); higher = more splicing; Tetrahymena group I intron in knt gene, E. coli kanamycin selection, DiMSum; sequences stand for … in CUCUCU…GGAGGGAAAAGUUAUCAGGCAUGCACCUGGUAGCUAGUCUUUAAACCAAUAGAUUGCAUCGGUUUAAAAGGCAAGACCGUCAAAUUGCGGGAAAGGGGUCAACAGCCGUUCAGUACCAAGUCUCAGGGGAAACUUUGAGAUGGCCUUGCAAAGGGUAUGGUAAUAAGCUGACGGACAUGGUCCUAACCACGCAGCCAAGUCCUAAGUCAACAGAUCUUCUGUUGAUAUGGAUGCAGUUCACAGACUAAAUGUCGGUCGGGGAAGAUGUAUUCUUCUCAUAAGAUAUAGUCGGACCUCUCCUUAAUGGGAGCUAGCGGAUGAAGUGAUGCAACACUGGAGCCGCUGGGAACUAAUUUGUAUGCGAAAGUAUAUUGAUUAGUUUUGGAGUACUCGUGGUCG
Method in brief: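 Six replicate transformations of E. coli BL21(DE3) with a pET-22b(+) library were grown overnight at 37°C or 30°C. The library randomised all eight P1ex-region intron nucleotides, the intron lying in the knt kanamycin-resistance gene, and plates were LB agar with or without 25 μg/mL kanamycin plus 100 μg/mL carbenicillin, 50 μM IPTG and 0.2% rhamnose. Pooled colonies were amplicon-sequenced on an Illumina HiSeq 2500, and fitness is the DiMSum error-weighted combination of wild-type-normalised replicate fold changes, kanamycin versus none.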

Row | Sequence | self-splicing fitness (ln) (30 °C) | self-splicing fitness (ln) (37 °C)
1 | CCAAAGCAAUAUUACGUGAU | -3.5 ± 0.21 | -3.14 ± 0.24
2 | CCAAAGCAAUAUUACGUGGG | -2.85 ± 0.12 | -2.9 ± 0.17
3 | CCACAGCAAUAUUACGAGGA | -3.8 ± 0.18 | -1.32 ± 0.12
4 | CCACAGCAAUAUUACGAGGU | -4.41 ± 0.2 | -2.81 ± 0.16
5 | CCACAGCAAUAUUACGAUCA | -2.69 ± 0.33 | -1.98 ± 0.28
6 | CCACAGCAAUAUUACGAUCU | -3.57 ± 0.16 | -2.43 ± 0.16
7 | CCACAGCAAUAUUACGCAAA | -2.03 ± 0.22 | -3.24 ± 0.32
8 | CCACAGCAAUAUUACGCACC | -2.62 ± 0.28 | -1.71 ± 0.28
9 | CCACAGCAAUAUUACGCCCG | -0.882 ± 0.078 | -0.0155 ± 0.09
10 | CCACAGCAAUAUUACGCCCU | -2.75 ± 0.25 | -2.08 ± 0.23
11 | CCACAGCAAUAUUACGCCUU | -3.21 ± 0.17 | -1.59 ± 0.14
12 | CCACAGCAAUAUUACGCGAA | -3.53 ± 0.2 | -3.29 ± 0.21
13 | CCACAGCAAUAUUACGCGCA | -3.95 ± 0.3 | -3.06 ± 0.24
14 | CCACAGCAAUAUUACGCUCG | -1.34 ± 0.077 | -0.135 ± 0.088
15 | CCACAGCAAUAUUACGCUGG | -4.04 ± 0.22 | -2.58 ± 0.2
16 | CCACAGCAAUAUUACGGUAU | -3.97 ± 0.19 | -2.6 ± 0.16
17 | CCACAGCAAUAUUACGGUCA | -3.27 ± 0.21 | -3.22 ± 0.34
18 | CCACAGCAAUAUUACGGUUC | -3.39 ± 0.18 | -2.27 ± 0.19
19 | CCACAGCAAUAUUACGGUUU | -4.31 ± 0.19 | -2.8 ± 0.16
20 | CCACAGCAAUAUUACGUAAU | -3.17 ± 0.13 | -2.41 ± 0.2
21 | CCACAGCAAUAUUACGUACA | -2.84 ± 0.19 | -2.96 ± 0.34
22 | CCACAGCAAUAUUACGUAUG | -0.654 ± 0.047 | -0.391 ± 0.065
23 | CCACAGCAAUAUUACGUCCG | -0.456 ± 0.053 | 0.344 ± 0.068
24 | CCACAGCAAUAUUACGUCGU | -4.38 ± 0.17 | -3.14 ± 0.17

Row | Sequence | self-splicing fitness (ln) (30 °C) | self-splicing fitness (ln) (37 °C)
25 | CCACAGCAAUAUUACGUGUC | -3.11 ± 0.15 | -2.68 ± 0.16
26 | CCACAGCAAUAUUACGUUAA | -3.12 ± 0.14 | -2.48 ± 0.14
27 | CCACAGCAAUAUUACGUUGA | -3.67 ± 0.17 | -3.31 ± 0.18
28 | CCAGAGCAAUAUUACGAAGC | -3.1 ± 0.24 | -2.71 ± 0.27
29 | CCAGAGCAAUAUUACGAAUA | -2.84 ± 0.23 | -3.27 ± 0.42
30 | CCAGAGCAAUAUUACGAAUG | -1.73 ± 0.097 | -0.868 ± 0.12
31 | CCAGAGCAAUAUUACGAGAC | -4.31 ± 0.46 | -2.66 ± 0.3
32 | CCAGAGCAAUAUUACGAGGU | -3.71 ± 0.24 | -2.77 ± 0.29
33 | CCAGAGCAAUAUUACGAUCC |  | -1.91 ± 0.38
34 | CCAGAGCAAUAUUACGAUUA | -3.29 ± 0.3 | 
35 | CCAGAGCAAUAUUACGCCGA | -2.35 ± 0.28 | -2.65 ± 0.44
36 | CCAGAGCAAUAUUACGCCUU | -3.57 ± 0.25 | -2.37 ± 0.25
37 | CCAGAGCAAUAUUACGCGAG | -2.77 ± 0.17 | -2.36 ± 0.25
38 | CCAGAGCAAUAUUACGCGUC | -3.45 ± 0.24 | -3 ± 0.3
39 | CCAGAGCAAUAUUACGCUAA | -2.74 ± 0.24 | -2.57 ± 0.24
40 | CCAGAGCAAUAUUACGGGCG | -1.5 ± 0.085 | -0.383 ± 0.1
41 | CCAGAGCAAUAUUACGGGUC | -3.22 ± 0.43 | -1.53 ± 0.28
42 | CCAGAGCAAUAUUACGGUAC | -3.29 ± 0.17 | -1.52 ± 0.26
43 | CCAGAGCAAUAUUACGUAGA | -1.88 ± 0.12 | -2.08 ± 0.23
44 | CCAGAGCAAUAUUACGUGAU | -3.93 ± 0.22 | -2.67 ± 0.28
45 | CCAGAGCAAUAUUACGUGCC | -3.42 ± 0.38 | -2.76 ± 0.32
46 | CCAGAGCAAUAUUACGUUGU | -3.81 ± 0.2 | -3 ± 0.26
47 | CCAUAGCAAUAUUACGACGG | -3.41 ± 0.14 | -1.67 ± 0.13
48 | CCAUAGCAAUAUUACGACGU | -3.3 ± 0.35 | -2.13 ± 0.23
